The target in assay [1] is recombinant human IFNγ protein (R&D systems, 285-IF-100) (human) (UniProt P01579). Briefly: BLI (ForteBio Octet RED96); summary sentence to Table 10.
Assay [2] deals with T1, recombinant human IFNγ protein (R&D systems, 285-IF-100) (human, UniProt P01579 24-166).
T1 sequence: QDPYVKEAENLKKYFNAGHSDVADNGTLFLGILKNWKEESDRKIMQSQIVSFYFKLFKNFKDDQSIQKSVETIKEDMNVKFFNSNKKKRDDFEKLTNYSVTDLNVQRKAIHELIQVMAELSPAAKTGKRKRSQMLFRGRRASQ
Nature of the assay: cell-based or functional assay.

For the next assay, the target named is T2, BSA (UniProt P02769 25-607).
T2 construct: also called bovine serum albumin
T2 sequence (P02769 25-607 limits assumed): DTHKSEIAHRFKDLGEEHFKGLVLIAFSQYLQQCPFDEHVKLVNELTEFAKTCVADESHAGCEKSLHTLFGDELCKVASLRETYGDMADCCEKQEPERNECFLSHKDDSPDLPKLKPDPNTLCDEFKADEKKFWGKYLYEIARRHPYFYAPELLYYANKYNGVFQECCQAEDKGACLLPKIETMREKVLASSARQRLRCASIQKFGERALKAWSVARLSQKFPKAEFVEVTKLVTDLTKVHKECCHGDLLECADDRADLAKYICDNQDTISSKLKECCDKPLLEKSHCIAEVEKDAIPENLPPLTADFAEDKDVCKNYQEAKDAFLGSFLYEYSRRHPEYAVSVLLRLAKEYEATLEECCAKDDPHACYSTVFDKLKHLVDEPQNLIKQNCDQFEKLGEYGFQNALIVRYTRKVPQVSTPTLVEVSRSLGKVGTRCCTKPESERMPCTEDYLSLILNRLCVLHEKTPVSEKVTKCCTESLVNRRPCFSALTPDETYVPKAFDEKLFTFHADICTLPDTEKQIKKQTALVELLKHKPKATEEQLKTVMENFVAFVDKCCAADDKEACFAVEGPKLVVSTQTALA
Nature of the assay: ELISA on plate coated with BSA (2 µg/mL).

For assay [3], the target named is T1, recombinant human IFNγ protein (R&D …). Briefly: BLI (ForteBio Octet RED96); summary sentence to Table 9.
Assay [4] has the same target. Nature of the assay: BLI (ForteBio Octet RED96); summary sentence to Table 10.
Assay [5] has as its target recombinant human IFNγ protein (R&D systems, 285-IF-100) (human) (UniProt P01579). Briefly: BLI (ForteBio Octet RED96); antibody captured on AHC anti-hIgG Fc biosensor, recombinant human IFNγ in solution; 1:1 Langmuir fit.

Consider AMG811 (antibody), for which the Kd in assay [1] is less than 0.1 nM.

B1: 2A6 (antibody, human IgG1, lambda, V domains shown)
VH: EVQLVESGGGLVKPGDSLTVSCVASGFTFSNYFIHWVRQAPGKGLEWVATISGRTKYMFYSDSLRGRFTVSRDNANNSVYLHMSSLRGEDTALYYCVRGYDHSDSNSAADLLHWGRGTLVTVSS
VL: NFMLTQPLSVSGYPGKTIVISCVRSSGSVASHYVQWFQQRPGSAPAMVIYEDSHRPSGIPDRFSGSVDASSNSASLTISGLKTEDEADYFCQSYYGNNQVLFGGGTKLTVLG
modifications: partial N-linked glycosylation at position 76 of the VH region
notes: Human IgG1 lambda, cloned from a single patient B cell and expressed in FreeStyle 293-F cells; also called 2A6 anti-IFNγ mAb
With B1, the “inhibition of HLA-DR expression on THP-1 cells stimulated with 2 ng/mL recombinant human IFN-γ, IC50” value in assay [2] was 3.4 ng/mL. The binding result in the assay with BSA was “no binding (tested: 1 µg/mL and 0.1 µg/mL)”. Besides, in assay [3], the Kd is less than 0.1 nM.

B2: AB (antibody, V domains shown)
VH: EVQLVESGGGLVKPGDSLTVSCVASGFTFSNYFIHWVRQAPGKGLEWVATISGRTKYMFYSDSLRGRFTVSRDNANNSVYLHMSSLRGEDTALYYCVRGYDHSDSNSAADLLHWGRGTLVTVSS
VL: NFMLTQPHSVSESPGKTITISCTRGRGYIASYYVQWYQQRPGGVPKIVVFEDTQRPSGVPDRISGSIDTSTNSASLTISGLQTEDEADYYCQSYDDANHVIFGGGTKLTVLG
In the case of B2, in the assay with BSA, the binding result is “no binding (tested: 1 µg/mL and 0.1 µg/mL)”. In assay [4], the dissociation constant (Kd) is less than 0.1 nM.

B3: 2F2 (antibody, from a related filing, V domains shown)
VH: EVQLVESGGGLVKPGESLRLACVASGFNFSDYYMTWIRQAPGKGLEWVSYISNSGSHTYYADAVKGRFTVSRDNAKNSLYLQMTSLRGEDTAIYFCARDPSIMRGTYYMDVWGKGTTVTVSS
VL: QSVLTQPPSASGTPGQRVTISCSGSSSNIGTNPVSWYQQFPGMAPKLLIYFNNQRPSGVPERFSGSKSGTPASLAIGGLQSEDEANYYCASWDDTLNGLVFGGGTKLTVL
As for B3, in assay [5], the dissociation constant (Kd) is 0.317 nM, the koff was 0.000109 s⁻¹ and the on-rate (kon) was found to be 344000 M⁻¹ s⁻¹.

B4: 2B6 (antibody, human IgG1, lambda, V domains shown)
VH: EVQLVESGGGLVKPGGSLRLSCAASGFPFSRYSMHWVRQAPGKGLEWVSSMTSRTNHKYYADSLKGRFLISRDNDRDSLYLEMNSLGVEDTAIYFCARGYDTSGSDSGVDFQYWGQGTLVTVSS
VL: NFMLTQPHSVSESPGKTITISCTRGRGYIASYYVQWYQQRPGGVPKIVVFEDTQRPSGVPDRISGSIDTSTNSASLTISGLQTEDEADYYCQSYDDANHVIFGGGTKLTVLG
notes: Human IgG1 lambda; also called 2B6 anti-IFNγ mAb
As for B4, the “inhibition of HLA-DR expression on THP-1 cells stimulated with 2 ng/mL recombinant human IFN-γ, IC50” value in assay [2] was found to be 3.5 ng/mL. Further, the binding result in the assay with BSA was “no binding (tested: 1 µg/mL and 0.1 µg/mL)”. In addition, the dissociation constant Kd in assay [3] was less than 0.1 nM.

B5: BA (antibody, V domains shown)
VH: EVQLVESGGGLVKPGGSLRLSCAASGFPFSRYSMHWVRQAPGKGLEWVSSMTSRTNHKYYADSLKGRFLISRDNDRDSLYLEMNSLGVEDTAIYFCARGYDTSGSDSGVDFQYWGQGTLVTVSS
VL: NFMLTQPLSVSGYPGKTIVISCVRSSGSVASHYVQWFQQRPGSAPAMVIYEDSHRPSGIPDRFSGSVDASSNSASLTISGLKTEDEADYFCQSYYGNNQVLFGGGTKLTVL
notes: Expressed from the same human IgG1 lambda vector as 2A6 and 2B6; also called antibody having the 2B6-VH and 2A6-VL
As for B5, in the assay with BSA, the binding result is “no binding (tested: 1 µg/mL and 0.1 µg/mL)”.

B6: 1E8 (antibody, from a related filing, V domains shown)
VH: EVQLLESGGGLVQPGGPLRLSCAASGFTFSIYSMNWVRQAPGKGLEWVSSISGSGDNTYYADSVKGRFTITRDSSKNTLYLQMNTLRAEDTAVYFCAKSGRNIISPGFDSWGQGTLVTVSS
VL: QPVLTQPPSASASLGASVTLTCTLNSDYGDYKVDWYQQRPGKGPRFVMRVGTGGIVGSKGDGIPDRFSVLGSGLNRFLTIKNIQEEDESDYYCGADHGSANNFIWVFGGGTKLTVL
On to B6, for which, in assay [5], the Kd worked out at 0.261 nM, the koff was 0.000121 s⁻¹ and the kon stood at 464000 M⁻¹ s⁻¹.
